Experimental data taken from the nanobody polyreactivity screen of Harvey et al. (2022).

Assay: yeast display, Sf9 membrane polyspecificity reagent, FACS + sequencing; frameworks hold sequencing errors
Procedure, shortened: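 Galactose-induced (36–48 hours) yeast carrying a synthetic nanobody display library were exposed to 10% biotinylated, detergent-solubilized Sf9 membrane reagent at 4 °C for 1 hour. FACS followed streptavidin microbead enrichment, using low and high (top ~1%) gates for expression (anti-HA) and reagent binding (streptavidin). Colony PCR, MiSeq 2 × 250 sequencing and CDR-length filtering followed. Labels for polyreactivity reflect the gate of origin.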
In the case of “QVQLVESGGGLVQAGGSLRLSCAASGSTFYPYAMGWYRQAPGKERELVAAITSGGRTYYADSVKGRFTISRDNAKNTVYLQMNSLKPEDTAVYYCAALQYRRLRDYRHDYWGQGTQVTVSS”, the “polyreactivity (PSR sort gate)” value is reported as “high polyreactivity”. For “QVQLVESGGGLVQAGGSLRLSCAASGSTFYPYAMGWYRQAPGKERELVAAITSSGGSTYYADSVKGRFTISRDNAKNTVYLQMNSLKPEDSAVYYCAKLHVPPVHYDYWGQGTQVTVSS”, the “polyreactivity (PSR sort gate)” value was “low polyreactivity”. For “QVQLVESGGGLVQAGGSLRLSCAASGSTFYPYAMGWYRQAPGKERELVADITNSGSTYYADSVKGRFTISRDNAKNTVYLQMNSLKPEDTAVYYCAARVYSVADYYYWGQGTQVTVSS”, the “polyreactivity (PSR sort gate)” value was “low polyreactivity”. For “QVQLVESGGGLVQAGGSLRLSCAASGSTFYPYAMGWYRQAPGKERELVASITTDDGSTYYADSVKGRFTISRDNAKNTVYLQMNSLKPEDTAVYYCAARFRGFAVDWYPFRQGDYWGQGTQVTVSS”, the “polyreactivity (PSR sort gate)” value was “low polyreactivity”. For “QVQLVESGGGLVQAGGSLRLSCAASGSTFYPYAMGWYRQAPGKERELVAVISWRGGSTYYADSVKGRFTISRDNAKNTVYLQMNSLKPEDTAVYYCGASGYRGYEYWGQGTQVTVSS”, the “polyreactivity (PSR sort gate)” value was “high polyreactivity”. With “QVQLVESGGGLVQAGGSLRLSCAASGSTFYPYFMGWYRQAPAKEREFVAAISKSGGSTYYADSVKGRFTISRDNAKNTVYLQMNSLKPEDTAVYYCNKKVGSYYRSYYYWGQGTQVTVSS” the “polyreactivity (PSR sort gate)” value was “high polyreactivity”. For “QVQLVESGGGLVQAGGSLRLSCAASGSTFYQYDMGWSRQAPGKERELVATISWSATSTYYADSVKGRFTISRDNAKNTVYLQMNSLKPEDTAVYYCNADLGDVYGWLHYDYWGQGTQVTVSS”, the “polyreactivity (PSR sort gate)” value was “low polyreactivity”. In the case of “QVQLVESGGGLVQAGGSLRLSCAASGSTFYRNAMGWSRPAPGKERELVAAINKSGGRTYYADSVKGRFTISRDNAKNTVYLQMNSLKPEDTAVYYCAAGVSVDLDYWGQGTQVTVSS”, the “polyreactivity (PSR sort gate)” value is reported as “high polyreactivity”. With “QVQLVESGGGLVQAGGSLRLSCAASGSTFYRNAMGWYRQAPGKERELVAAISGSGARTYYADSVKGRFTISRDNAKNTVYLQMNSLKPEDTAVYYCNAKRYFRNHFRTGGMYYWGQGTQVTVSS” the “polyreactivity (PSR sort gate)” value was “high polyreactivity”. In the case of “QVQLVESGGGLVQAGGSLRLSCAASGSTFYRNAMGWYRQAPGKERELVAAISSTGGSTYYADSVKGRFTISRDNAKNTVYLQMNSLKAEDTAVYYCAVDPGLTKGFGYWGQGTHVTVSS”, the “polyreactivity (PSR sort gate)” value is reported as “low polyreactivity”. For “QVQLVESGGGLVQAGGSLRLSCAASGSTFYRNAMGWYRQAPGKERELVAAITWSGGTTYYADSVKGRFTISRDNAKNTVYLQMNSLKPEDTAVYYCAARFILAPRRGYNAYKYYYWGQGTQVTVSS”, the “polyreactivity (PSR sort gate)” value was “high polyreactivity”. In the case of “QVQLVESGGGLVQAGGSLRLSCAASGSTFYRNTMGWYRQAPGKERELVAAIRRSGSSTYYADSVKGRFTISRDNAKNTVYLQMNSLKPDDTAVYYCAKEGLSYRYYYCGQGTQVTVSS”, the “polyreactivity (PSR sort gate)” value is reported as “high polyreactivity”. For “QVQLVESGGGLVQAGGSLRLSCAASGSTFYRYAMGCYRQAPGKERELVAAISSRGGSTYYADSVKGRFTISRDNAKNTVYLQMNSLKPEDTAVYYCAAQVYGTAGYYYWGQGTQVTVSS”, the “polyreactivity (PSR sort gate)” value was “high polyreactivity”. In the case of “QVQLVESGGGLVQAGGSLRLSCAASGSTFYRYAMGWYRQAPGKEREFVAAISRSGGSTYYADSVKGRFTISRDNAKNTVYLQMNSLKPEDTAVYYCNKYYWYPYGRAHYYGYWGQGTQVTVSS”, the “polyreactivity (PSR sort gate)” value is reported as “high polyreactivity”. In the case of “QVQLVESGGGLVQAGGSLRLSCAASGSTFYRYAMGWYRQAPGKERELVAAISRNGGSTYYSDSVKGRFTISRDNAKNTVYLQMNSLKPEDTAVYYCAAVWPYGSRVAPMDYWGQGTQVTVSS”, the “polyreactivity (PSR sort gate)” value is reported as “high polyreactivity”. With “QVQLVESGGGLVQAGGSLRLSCAASGSTFYRYAMGWYRQAPGKERELVAAISSDGTTYYADSVKGRFTISRDNAKNTVYLQMISLKPEDTAVYDCAAEGIRRSQRFNYWGQGTQVTVSS” the “polyreactivity (PSR sort gate)” value was “high polyreactivity”. With “QVQLVESGGGLVQAGGSLRLSCAASGSTFYRYAMGWYRQAPGKERELVAAISYRGGSTYYADSVKGRFTISRDNAKNTVYLQMNSLKPEDTAVYYCNKRSTRRYDYWGQGTQVTVSS” the “polyreactivity (PSR sort gate)” value was “high polyreactivity”. In the case of “QVQLVESGGGLVQAGGSLRLSCAASGSTFYRYAMGWYRQAPGKERELVAVITSGGSTNYADSVKGRFTISRDNAKNTVYLQMNSLKPEDTAVYYCAKEDGYSQLKTTFDEAGYGSWGQGTQVTVSS”, the “polyreactivity (PSR sort gate)” value is reported as “low polyreactivity”. In the case of “QVQLVESGGGLVQAGGSLRLSCAASGSTFYRYTMGWYRQAPGKERELVAAITGSGDSTYYADSVKGRFTISRDNAKNTVYLQMNSLKPEDTAVYYCAAANSFYYIATGEYDYWGQGTQVNVSS”, the “polyreactivity (PSR sort gate)” value is reported as “high polyreactivity”. In the case of “QVQLVESGGGLVQAGGSLRLSCAASGSTFYSNAMGWYRQAPGKERELVAAINYSGGGTYYADSVKGRFTISRDNAKNTVYLQMNSLKPEDTAVYYCAADGSYVHWEYGYWGQGTQVTVSS”, the “polyreactivity (PSR sort gate)” value is reported as “low polyreactivity”. In the case of “QVQLVESGGGLVQAGGSLRLSCAASGSTFYSNAMGWYRQAPGKERELVAAISRRGSSTYYADSVKGRFTISRDNAKNTVYLQMNSLKPEDTAVYYCNAVGTGGYSSEYGYWGQGTQVTVSS”, the “polyreactivity (PSR sort gate)” value is reported as “high polyreactivity”. With “QVQLVESGGGLVQAGGSLRLSCAASGSTFYSNAMGWYRQAPGKERELVAAITDGDRTNYADSVKGRFTISRDNAKNTVYLQMNSLKPEDTAVYYCAADYAVYLGVSPDYGYWGQGTQVTVSS” the “polyreactivity (PSR sort gate)” value was “low polyreactivity”. For “QVQLVESGGGLVQAGGSLRLSCAASGSTFYSYAMGWYRQAHGQERELVAAISYSGGSTYYADSVKGRFTISRDNAKNTVYLQMNSLKPADTAVYYCNARAVYPAGYAYDYWGQGTQVTVSS”, the “polyreactivity (PSR sort gate)” value was “high polyreactivity”. With “QVQLVESGGGLVQAGGSLRLSCAASGSTFYSYAMGWYRQAPGKEREFVAVISWSGGRTRYADSVKGRFTISRDNAKNTVYLQMNSLKPEDTAVYYCNARKWGYSPHRKGDRHFEYWGQGTQVTVSS” the “polyreactivity (PSR sort gate)” value was “low polyreactivity”. With “QVQLVESGGGLVQAGGSLRLSCAASGSTFYSYAMGWYRQAPGKERELVADITDSGGSTYYADSVKGRFTISRDNAKNTVYLQMNSLKPEDTALFYCNAAYYIWYNKVSSTYGIHGMDYWGQGTQVTVSS” the “polyreactivity (PSR sort gate)” value was “high polyreactivity”. For “QVQLVESGGGLVQAGGSLRLSCAASGSTFYSYSMGWNRQAPGKERELVAAITKSGGSTYYADSVKGRFTISRDNAKNTVYLQMNSLKPEDTAVYYCAARQGVRMYWGQVTQVTVSS”, the “polyreactivity (PSR sort gate)” value was “high polyreactivity”. For “QVQLVESGGGLVQAGGSLRLSCAASGSTFYTNAMGWSRQAPGKERELVASIDRGGGSTYYAESVKGRFTISRDNAKNTVYLQMNSLKPEDTAVYYCAASFDGRYWGYYYWGQGTKVTVSS”, the “polyreactivity (PSR sort gate)” value was “low polyreactivity”. For “QVQLVESGGGLVQAGGSLRLSCAASGSTFYTNAMGWSRQAPGTERELVAAISGSGGSTYYADSVKGRFTISRDNAKNTVYVQMNSLKPEDTAVYYCAARSRYYYTRFDYWGQGTQVTVSS”, the “polyreactivity (PSR sort gate)” value was “low polyreactivity”. In the case of “QVQLVESGGGLVQAGGSLRLSCAASGSTFYTNAMGWYIQAPGKERELVAAISRGGITYYADSVKGRFTISRDNAKNTVYLQMNSLKPEDTAVYYCNTQIVTEYDYWGQDTQVTVSS”, the “polyreactivity (PSR sort gate)” value is reported as “low polyreactivity”. For “QVQLVESGGGLVQAGGSLRLSCAASGSTFYTNAMGWYRPAPGKERELVAAISASVGSTYYADSVKGRFTISRDNAKNTVYLQMNSLKPEDTAVYYCAADVWASRRYDYWGQGTQVTVSS”, the “polyreactivity (PSR sort gate)” value was “low polyreactivity”.
